Measurements published in patent US20220074941A1, “HSP90 COMBINATION THERAPY” (Sloan-Kettering Institute for Cancer Research, priority 2011, published 2022).

B1: CTTN (protein, UniProt Q14247 1-550, looked up)
Src substrate cortactin: MWKASAGHAVSIAQDDAGADDWETDPDFVNDVSEKEQRWGAKTVQGSGHQEHINIHKLRENVFQEHQTLKEKELETGPKASHGYGGKFGVEQDRMDKSAVGHEYQSKLSKHCSQVDSVRGFGGKFGVQMDRVDQSAVGFEYQGKTEKHASQKDYSSGFGGKYGVQADRVDKSAVGFDYQGKTEKHESQRDYSKGFGGKYGIDKDKVDKSAVGFEYQGKTEKHESQKDYVKGFGGKFGVQTDRQDKCALGWDHQEKLQLHESQKDYKTGFGGKFGVQSERQDSAAVGFDYKEKLAKHESQQDYSKGFGGKYGVQKDRMDKNASTFEDVTQVSSAYQKTVPVEAVTSKTSNIRANFENLAKEKEQEDRRKAEAERAQRMAKERQEQEEARRKLEEQARAKTQTPPVSPAPQPTEERLPSSPVYEDAASFKAELSYRGPVSGTEPEPVYSMEAADYREASSQQGLAYATEAVYESAEAPGHYPAEDSTYDEYENDLGITAVALYDYQAAGDDEISFDPDDIITNIEMIDDGWWRGVCKGRYGLFPANYVELRQ
B2: HEATR6 (protein, UniProt Q6AI08 1-1181, looked up)
HEAT repeat-containing …: MAAVQVVGSWPSVQPREAPREAIPERGNGFRLLSARLCALRPDDSSSARTEIHLLFDQLISENYSEGSGVAPEDVSALLVQACRLVPLNQNHLVSKVSQLIHHLLNRLQVIVDEQHLDFLLAYTISAIHQCSSWTHREILQALAALVYCNGSKCQKYLPELLGNTGLLMKLSDLAQSDPEVRRAAVHCMANLCLSVPGQPYLEEPYQNVCFQAFLTILQSPKSSDMDDITFCMLLQNALKGIQSLLNGGRMKLTQTDELGALLAVLKKFMFHGLPGLNIEMPTVLYPTPLPQYDGRTPIKPQQSESSASRPTLNKKKKSKVKPKKIQQGEEEEKESSGEIEAAPVTGTGRVNLHEGNTWCPSSLGVQSLPLDGSGAAEKDGVSSSFSSSSWKRVSSSESDFSDAEGGMQSKMRSYQAKVRQGALVCFLSTIKSIEKKVLYGYWSAFIPDTPELGSPQSVSLMTLTLKDPSPKTRACALQVLSAILEGSKQFLSVAEDTSDHRRAFTPFSVMIACSIRELHRCLLLALVAESSSQTVTQIIKCLANLVSNAPYDRLKLSLLTKVWNQIKPYIRHKDVNVRVSSLTLLGAIVSTHAPLPEVQLLLQQPCSSGLGNSNSATPHLSPPDWWKKAPAGPSLEETSVSSPKGSSEPCWLIRLCISIVVLPKEDSCSGSDAGSAAGSTYEPSPMRLEALQVLTLLARGYFSMTQAYLMELGEVICKCMGEADPSIQLHGAKLLEELGTGLIQQYKPDSTAAPDQRAPVFLVVMFWTMMLNGPLPRALQNSEHPTLQASACDALSSILPEAFSNLPNDRQMLCITVLLGLNDSKNRLVKAATSRALGVYVLFPCLRQDVIFVADAANAILMSLEDKSLNVRAKAAWSLGNLTDTLIVNMETPDPSFQEEFSGLLLLKMLRSAIEASKDKDKVKSNAVRALGNLLHFLQPSHIEKPTFAEIIEESIQALISTVLTEAAMKVRWNACYAMGNVFKNPALPLGTAPWTSQAYNALTSVVTSCKNFKVRIRSAAALSVPGKREQYGSVDQYARIWNALVTALQKSEDTIDFLEFKYCVSLRTQICQALIHLLSLASASDLPCMKETLELSGNMVQSYILQFLKSGAEGDDTGAPHSPQERDQMVRMALKHMGSIQAPTGDTARRAIMGFLEEILAVCFDSSGSQGALPGLTNQ
B3: KIAA1468 (protein, UniProt Q9P260 2-1216, looked up)
RAB11-binding protein RELCH: AAMAPGGSGSGGGVNPFLSDSDEDDDEVAATEERRAVLRLGAGSGLDPGSAGSLSPQDPVALGSSARPGLPGEASAAAVALGGTGETPARLSIDAIAAQLLRDQYLLTALELHTELLESGRELPRLRDYFSNPGNFERQSGTPPGMGAPGVPGAAGVGGAGGREPSTASGGGQLNRAGSISTLDSLDFARYSDDGNRETDEKVAVLEFELRKAKETIQALRANLTKAAEHEVPLQERKNYKSSPEIQEPIKPLEKRALNFLVNEFLLKNNYKLTSITFSDENDDQDFELWDDVGLNIPKPPDLLQLYRDFGNHQVTGKDLVDVASGVEEDELEALTPIISNLPPTLETPQPAENSMLVQKLEDKISLLNSEKWSLMEQIRRLKSEMDFLKNEHFAIPAVCDSVQPPLDQLPHKDSEDSGQHPDVNSSDKGKNTDIHLSISDEADSTIPKENSPNSFPRREREGMPPSSLSSKKTVHFDKPNRKLSPAFHQALLSFCRMSADSRLGYEVSRIADSEKSVMLMLGRCLPHIVPNVLLAKREELIPLILCTACLHPEPKERDQLLHILFNLIKRPDDEQRQMILTGCVAFARHVGPTRVEAELLPQCWEQINHKYPERRLLVAESCGALAPYLPKEIRSSLVLSMLQQMLMEDKADLVREAVIKSLGIIMGYIDDPDKYHQGFELLLSALGDPSERVVSATHQVFLPAYAAWTTELGNLQSHLILTLLNKIEKLLREGEHGLDEHKLHMYLSALQSLIPSLFALVLQNAPFSSKAKLHGEVPQIEVTRFPRPMSPLQDVSTIIGSREQLAVLLQLYDYQLEQEGTTGWESLLWVVNQLLPQLIEIVGKINVTSTACVHEFSRFFWRLCRTFGKIFTNTKVKPQFQEILRLSEENIDSSAGNGVLTKATVPIYATGVLTCYIQEEDRKLLVGFLEDVMTLLSLSHAPLDSLKASFVELGANPAYHELLLTVLWYGVVHTSALVRCTAARMFELTLRGMSEALVDKRVAPALVTLSSDPEFSVRIATIPAFGTIMETVIQRELLERVKMQLASFLEDPQYQDQHSLHTEIIKTFGRVGPNAEPRFRDEFVIPHLHKLALVNNLQIVDSKRLDIATHLFEAYSALSCCFISEDLMVNHFLPGLRCLRTDMEHLSPEHEVILSSMIKECEQKVENKTVQEPQGSMSIAASLVSEDTKTKFLNKMGQLTTSGAMLANVFQRKK
B4: AIP (protein, UniProt O00170 1-330, looked up)
AH receptor-interacting …: MADIIARLREDGIQKRVIQEGRGELPDFQDGTKATFHYRTLHSDDEGTVLDDSRARGKPMELIIGKKFKLPVWETIVCTMREGEIAQFLCDIKHVVLYPLVAKSLRNIAVGKDPLEGQRHCCGVAQMREHSSLGHADLDALQQNPQPLIFHMEMLKVESPGTYQQDPWAMTDEEKAKAVPLIHQEGNRLYREGHVKEAAAKYYDAIACLKNLQMKEQPGSPEWIQLDQQITPLLLNYCQCKLVVEEYYEVLDHCSSILNKYDDNVKAYFKRGKAHAAVWNAQEAQADFAKVLELDPALAPVVSRELRALEARIRQKDEEDKARFRGIFSH
B5: HEATR2 (protein, UniProt Q86Y56 2-855, looked up)
Dynein axonemal assembly …: AALGVAEAVAAPHPAEGAETAEAVELSRALSRLLPGLEADSKPGRRRALEALRRALEEPGPAADPTAFQGPWARLLLPRLLRCLSDPAEGCRALAVHLLDLGLRRAARPRDALPRLLPALAARLAGPVPARRPPEACEELRLALVQLLGLAVDLCGAALAPHLDDALRALRCSLLDPFAAVRRESCSCAAALAQATPDHFHMQSESLIGPLMQTISHQHWKVRVAAIEATGAVIHFGNGKSVDDVLSHFAQRLFDDVPQVRRAVASVVGGWLLCLRDRYSFFHKLIPLLLSSLNDEVPEVRQLAASLWEDVGLQWQKENEEDLKDKLDFAPPTPPHYPPHERRPVLGCRELVFRNLSKILPALCHDITDWVVGTRVKSAQLLPVLLLHAEDHATQHLEVVLRTLFQACTDEEAAVVQSCTRSAELVGTFVSPEVFLKLILSTLKKTPSASGLLVLASAMRGCPREALQPHLAAIATELAQAHICQASENDLYLERLLLCVQALVSVCHEDCGVASLQLLDVLLTIVALAGATGLRDKAQETMDSLAMVEGVSSCQDLYRKHIGPLLERVTASHLDWTAHSPELLQFSVIVAQSGPALGEALPHVVPTLRACLQPSQDPQMRLKLFSILSTVLLRATDTINSQGQFPSYLETVTKDILAPNLQWHAGRTAAAIRTAAVSCLWALTSSEVLSAEQIRDVQETLMPQVLTTLEEDSKMTRLISCRIINTFLKTSGGMTDPEKLIRIYPELLKRLDDVSNDVRMAAASTLVTWLQCVKGANAKSYYQSSVQYLYRELLVHLDDPERAIQDAILEVLKEGSGLFPDLLVRETEAVIHKHRSATYCEQLLQHVQAVPATQ

Columns and labels:
[1] = tested on: Hsp90 complexes in K562 cell extract; assay: Nano-LC-MS/MS of PU-beads pull-downs; assay type: binding; details: protein identified in PU-beads pull-down of K562 cell extract, QSTAR-Elite QTof MS
Method: Protein cargo isolated from cell lysate with PU-beads or control-beads was subjected to proteomic analysis by nano liquid chromatography coupled to tandem mass spectrometry (nano LC-MS/MS). Initial protein identification was performed using the Mascot search engine, and was further evaluated using Scaffold Proteome Software (Tables 5a-d).
(§1) Lysates prepared as mentioned above were first pre-cleaned by incubation with control beads overnight at 4° C. […] Beads were washed with lysis buffer, proteins eluted by boiling in 2% SDS, separated on a denaturing gel and Coomassie stained according to manufacturer's procedure (Biorad). […] Analyses of the batch purified pools were done using a QSTAR-Elite hybrid quadrupole time-of-flight mass spectrometer (QTof MS) (AB/MDS Sciex), equipped with a nano spray ion source. Peptide mixtures (in 20 μL) are loaded onto a trapping guard column (0.3×5-mm PepMap C18 100 cartridge from LC Packings) using an Eksigent nano MDLC system (Eksigent Technologies, Inc) at a flow rate of 20 μL/min. […] Electrospray ionization (ESI) needle voltage was set at about 1800 V. The mass analyzer is operated in automatic, data-dependent MS/MS acquisition mode, with the threshold set to 10 counts per second of doubly or triply charged precursor ions selected for fragmentation scans. Survey scans of 0.25 sec are recorded from 400 to 1800 amu; up to 3 MS/MS scans are then collected sequentially for the selected precursor ions, recording from 100 to 1800 amu. The collision energy is automatically adjusted in accordance with the m/z value of the precursor ions selected for MS/MS. Selected precursor ions are excluded from repeated selection for 60 sec after the end of the corresponding fragmentation duty cycle. […] One missed tryptic cleavage site was allowed, precursor ion mass tolerance=0.4 Da fragment ion mass tolerance=0.4 Da, protein modifications were allowed for Met-oxide, Cys-acrylamide and N-terminal acetylation. MudPit scoring was typically applied with ‘require bold red’ activated, and using significance threshold score p<0.05. Unique peptide counts (or ‘spectral counts’) and percent sequence coverages for all identified proteins were exported to Scaffold Proteome Software (version 2_06_01, www.proteomesoftware.com) for further bioinformatic analysis (Table 5a). Using output from Mascot, Scaffold validates, organizes, and interprets mass spectrometry data, allowing more easily to manage large amounts of data, to compare samples, and to search for protein modifications.

[2] = tested on: Hsp90 complexes in Mia-PaCa-2 cell extract; assay: Nano-LC-MS/MS of PU-beads pull-downs; assay type: binding, human; details: protein identified in PU-beads pull-down of Mia-PaCa-2 cell extract; QSTAR-Elite QTof MS
Method: as §1

Molecule	Number of Assigned Spectra, K562 Prep 1 [1]	Number of Assigned Spectra, K562 Prep 2 [1]	Number of Assigned Spectra, Mia-Paca 2 [2]
B1	6	6	2
B2	2	1	0
B3	0	0	3
B4	10	0	0
B5	5	2	11
